These are literature values, as cited in paper PMC3514595.

Usually pKd stands for −log10 of the Kd, conventionally taken in molar units.

The series has as its target IL-15Rα (UniProt Q13261).

pKd: −log10 of the molar value.

Sequence of UniProt Q13261 (Q13261 31-205): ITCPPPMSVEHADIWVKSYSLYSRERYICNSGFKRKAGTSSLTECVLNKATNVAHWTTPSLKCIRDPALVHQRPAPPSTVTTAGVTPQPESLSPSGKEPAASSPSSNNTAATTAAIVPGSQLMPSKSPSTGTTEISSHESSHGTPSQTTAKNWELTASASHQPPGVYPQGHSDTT

Consider IL-15 (from UniProt P40933), for which the pKd was 10.42.
